Laboratory results published in patent publication US11833164B2, “Methods of treating Fabry disease in patients having a mutation in the GLA gene” (Amicus Therapeutics, Inc., priority 2019, dated 2023).

System: mutant form of α-Gal A expressed in HEK-293 cells
Assay: HEK assay (GLP HEK / Migalastat Amenability Assay): α-Gal A activity in lysates of transiently transfected HEK-293 cells incubated with or without 10 μM migalastat
Type: cell-based, human
Conditions: for Absolute increase (% WT): 10 μM migalastat versus baseline; for Relative increase: 10 μM migalastat α-Gal A activity relative to baseline; for 10 μM migalastat α-Gal A activity (% WT): 5 days; for 10 μM migalastat α-Gal A activity (% WT) / Baseline α-Gal A activity (% WT): percentage of baseline wild-type α-Gal A activity; for 10 μM migalastat α-Gal A activity (% WT) / Baseline α-Gal A activity (% WT) / Baseline α-Gal A activity / 10 μM migalastat α-Gal A activity: mean ± SEM; for Baseline α-Gal A activity (% WT): absence of migalastat; for Baseline α-Gal A activity / 10 μM migalastat α-Gal A activity: lysates of HEK-293 cells transfected with the mutant form; for Baseline α-Gal A activity: incubated 5 days in the absence of migalastat; for 10 μM migalastat α-Gal A activity: incubated 5 days with 10 μM migalastat
How it was run: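 Activity reported as 4-MU released (nmol/mg/hr), mean±SEM, from lysates of transiently transfected HEK-293 cells expressing mutant α-Gal A, cultured with or without 10 μM migalastat.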

Molecule	Absolute increase (% WT)	Relative increase	10 μM migalastat α-Gal A activity (% WT)	Baseline α-Gal A activity (% WT)	Baseline α-Gal A activity [nmol/mg/h]	10 μM migalastat α-Gal A activity [nmol/mg/h]
D175H (protein) MQLRNPELHLGCALALRFLALVSWDIPGARALDNGLARTPTMGWLHWERFMCNLDCQEEPDSCISEKLFMEMAELMVSEGWKDAGYEYLCIDDCWMAPQRDSEGRLQADPQRFPHGIRQLANYVHSKGLKLGIYADVGNKTCAGFPGSFGYYDIDAQTFADWGVDLLKFDGCYCHSLENLADGYKHMSLALNRTGRSIVYSCEWPLYMWPFQKPNYTEIRQYCNHWRNFADIDDSWKSIKSILDWTSFNQERIVDVAGPGGWNDPDMLVIGNFGLSWNQQVTQMALWAIMAAPLFMSNDLRHISPQAKALLQDKDVIAINQDPLGKQGYQLRQGDNFEVWERPLSGLAWAVAMINRQEIGGPRSYTIAVASLGKGVACNPACFITQLLPVKRKLGFYEWTSRLRSHINPTGTVLLQLENTMQMSLKDLL	26.4	1.4	87.1 ± 3.9	60.7 ± 3.4	18529 ± 1174	26201 ± 994
S176C (protein) MQLRNPELHLGCALALRFLALVSWDIPGARALDNGLARTPTMGWLHWERFMCNLDCQEEPDSCISEKLFMEMAELMVSEGWKDAGYEYLCIDDCWMAPQRDSEGRLQADPQRFPHGIRQLANYVHSKGLKLGIYADVGNKTCAGFPGSFGYYDIDAQTFADWGVDLLKFDGCYCDCLENLADGYKHMSLALNRTGRSIVYSCEWPLYMWPFQKPNYTEIRQYCNHWRNFADIDDSWKSIKSILDWTSFNQERIVDVAGPGGWNDPDMLVIGNFGLSWNQQVTQMALWAIMAAPLFMSNDLRHISPQAKALLQDKDVIAINQDPLGKQGYQLRQGDNFEVWERPLSGLAWAVAMINRQEIGGPRSYTIAVASLGKGVACNPACFITQLLPVKRKLGFYEWTSRLRSHINPTGTVLLQLENTMQMSLKDLL	16.2	1.2	79.5 ± 5.1	63.3 ± 3.9	20097 ± 1126	24777 ± 960
D175V (protein) MQLRNPELHLGCALALRFLALVSWDIPGARALDNGLARTPTMGWLHWERFMCNLDCQEEPDSCISEKLFMEMAELMVSEGWKDAGYEYLCIDDCWMAPQRDSEGRLQADPQRFPHGIRQLANYVHSKGLKLGIYADVGNKTCAGFPGSFGYYDIDAQTFADWGVDLLKFDGCYCVSLENLADGYKHMSLALNRTGRSIVYSCEWPLYMWPFQKPNYTEIRQYCNHWRNFADIDDSWKSIKSILDWTSFNQERIVDVAGPGGWNDPDMLVIGNFGLSWNQQVTQMALWAIMAAPLFMSNDLRHISPQAKALLQDKDVIAINQDPLGKQGYQLRQGDNFEVWERPLSGLAWAVAMINRQEIGGPRSYTIAVASLGKGVACNPACFITQLLPVKRKLGFYEWTSRLRSHINPTGTVLLQLENTMQMSLKDLL	19.7	1.6	53.5 ± 2.5	33.7 ± 2.2	10430 ± 915	16384 ± 1039
D175Y (protein) MQLRNPELHLGCALALRFLALVSWDIPGARALDNGLARTPTMGWLHWERFMCNLDCQEEPDSCISEKLFMEMAELMVSEGWKDAGYEYLCIDDCWMAPQRDSEGRLQADPQRFPHGIRQLANYVHSKGLKLGIYADVGNKTCAGFPGSFGYYDIDAQTFADWGVDLLKFDGCYCYSLENLADGYKHMSLALNRTGRSIVYSCEWPLYMWPFQKPNYTEIRQYCNHWRNFADIDDSWKSIKSILDWTSFNQERIVDVAGPGGWNDPDMLVIGNFGLSWNQQVTQMALWAIMAAPLFMSNDLRHISPQAKALLQDKDVIAINQDPLGKQGYQLRQGDNFEVWERPLSGLAWAVAMINRQEIGGPRSYTIAVASLGKGVACNPACFITQLLPVKRKLGFYEWTSRLRSHINPTGTVLLQLENTMQMSLKDLL	22.9	1.8	52.3 ± 1.9	29.4 ± 2.4	8991 ± 838	15923 ± 778
